According to patent publication US20240067758A1 (UCB, published 2024):
Positions count from the first letter of the chain named. Numbers in names are those of the source. Each block holds one binder with its values, some of them ahead of it.

Key:
Human IL22 [1] = molecular target: T1, Human IL22 (human, UniProt Q9GZX6 34-179); experiment: SPR Biacore T200; Fab captured on anti-rabbit F(ab')2, IL22 titrated 0.6-50 nM
T1 construct: IL22 of the Biacore and cell assays
T1 sequence: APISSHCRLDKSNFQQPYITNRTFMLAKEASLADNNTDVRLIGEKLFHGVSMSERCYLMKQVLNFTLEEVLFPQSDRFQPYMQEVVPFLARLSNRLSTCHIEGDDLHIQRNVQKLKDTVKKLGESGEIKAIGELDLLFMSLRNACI
Procedure: (§1) HBS-EP+ buffer (10 mM HEPES pH 7.4, 0.15 M NaCl, 3 mM EDTA, 0.05% Surfactant P20, GE Healthcare) was used as the running buffer with a flow rate of 10 μL/min.
(§2) The surface was generated by 2×10 μL injection of 50 mM HCl, interspersed by a 10 μL injection of 5 mM NaOH at flowrate of 10 μL/min. Background subtraction binding curves were analyzed using the Biacore T200 evaluation software following standard procedures. Kinetic parameters were determined from the fitting algorithm.

Cynomolgus IL22 = molecular target: T2, Cynomolgus IL22 (cynomolgus, UniProt G7PHZ7 34-179); experiment: as above
T2 construct: also called Cyno IL22; Cyno IL-22
T2 sequence: T1 sequence with I3V, L32S, H48R, F72L, R95S, R110K
Procedure: as §1, §2

Mouse IL22 = molecular target: T3, Mouse IL22 (mouse, UniProt Q9JJY9 34-179); experiment: as above
T3 sequence (looked up): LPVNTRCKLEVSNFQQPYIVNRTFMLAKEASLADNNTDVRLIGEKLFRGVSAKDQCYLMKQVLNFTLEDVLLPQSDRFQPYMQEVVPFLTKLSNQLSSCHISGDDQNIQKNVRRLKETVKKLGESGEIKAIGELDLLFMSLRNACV
Procedure: as §1, §2

Human IL22 [2] = molecular target: T1, Human IL22; experiment: SPR (Biacore); Fab variant, human IL22
Human IL22 [3] = molecular target: T1, Human IL22; experiment: SPR (Biacore); Fab variant, human IL22; remark: listed apart in the source

Kd (Human IL22 [1]): 0.34 nM | koff (Human IL22 [1]): 0.00029 s⁻¹ | kon (Human IL22 [1]): 870000 M⁻¹ s⁻¹ | Kd (Cynomolgus IL22): 1.1 nM | koff (Cynomolgus IL22): 0.00028 s⁻¹ | kon (Cynomolgus IL22): 260000 M⁻¹ s⁻¹ | Kd (Mouse IL22): 3 nM | koff (Mouse IL22): 0.11 s⁻¹ | kon (Mouse IL22): 3.7e+07 M⁻¹ s⁻¹
B1: Rabbit 11041 Fab (Fab, V domains shown)
VH: QSVEESGGRLVTPGTPLTLTCTVSGFSLSSYAMIWVRQAPGEGLEWIGIIDIDGSTYYASWAKGRFTISRTSTTVDLKITSPTTGDTATYFCARDRFVGVDIFDPWGPGTLVTVSS
VL: AVVLTQTASPVSAPVGGTVTIKCQASEDIYTNLAWYQQKPGQPPKLLIYWASTLASGVPSRFKGSGSGTEFTLTISDLECADAATYYCQACVYGNSADSRYTFGGGTEVVVK
notes: Rabbit Fab

Kd (Human IL22 [2]): 0.0317 nM
B2: 11070gL1gH13 (Fab, V domains shown)
VH: EVQLQESGPGLVKPSQTLSLTCTVSGFSLTSYSVHWVRQHSGKGLEWMGRMWSDGDTSYNTAFTSRLTISRDTSKSQVSLKLSSVTAADTAVYYCARSLDFYYDTTLAFWGQGTTVTVSS
VL: DIVMTQSPSSVSASVGDRVTITCKASKTISKYLAWYQQKPGKANKLLIYSGSTLQSGTPSRFSGSGSSTDFTLTISSLQPEDFATYYCQQHNEYPLTFGQGTKLEIK
notes: V-regions only; also called 11070gL1gH1 S61T

Kd (Human IL22 [2]): 0.0257 nM
B3: 11070gL7gH16 Fab (Fab, V domains shown)
VH: B2 VH with S41P, M48I, S76N
VL: DIQMTQSPSSVSASVGDRVTITCKASKTISKYLAWYQQKPGKANKLLIYSGSTLQSGVPSRFSGSGSGTDFTLTISSLQPEDFATYYCQQHNEYPLTFGQGTKLEIKR
notes: also called VR11070

Kd (Human IL22 [2]): 0.0368 nM
B4: 11070gL1gH1 (Fab, V domains shown)
VH: B2 VH with T61S
VL: B2 VL
notes: V-regions only

Kd (Human IL22 [3]): 0.0281 nM
B5: 11041gL1 C91S gH1 D54E (Fab, V domains shown)
VH: EVQLVESGGGLVQPGGSLRLSCAVSGFSLSSYAMIWVRQAPGKGLEWIGIIDIEGSTYYASWAKGRFTISRDSSKNTVYLQMNSLRAEDTAVYYCARDRFVGVDIFDPWGQGTLVTVSS
VL: AVVLTQSPSSLSASVGDRVTITCQASEDIYTNLAWYQQKPGKAPKLLIYWASTLASGVPSRFSGSGSGTDFTLTISSLQPEDFATYYCQASVYGNSADSRYTFGGGTKVEIK
notes: V-regions only; also called 11041gL2gH3

Kd (Human IL22 [3]): 0.0161 nM
B6: 11041gL6 C91S gH5 D54E (Fab, V domains shown)
VH: B5 VH with S73N
VL: B5 VL with V3Q
notes: also called 11041gL11gH14

Kd (Human IL22 [3]): 0.0849 nM
B7: 11041gL6 C91S S96A gH8 D54E (Fab, V domains shown)
VH: B5 VH with V78L
VL: AVQLTQSPSSLSASVGDRVTITCQASEDIYTNLAWYQQKPGKAPKLLIYWASTLASGVPSRFSGSGSGTDFTLTISSLQPEDFATYYCQASVYGNAADSRYTFGGGTKVEIKR
notes: also called 11041gL13gH15

Kd (Human IL22 [3]): 0.0666 nM
B8: 11041gL7 C91S gH11 D54E (Fab, V domains shown)
VH: B5 VH with I48V, S73N, V78L
VL: B5 VL with V2I, V3Q
notes: V-regions only; also called 11041gL12gH17

Kd (Human IL22 [3]): 0.0516 nM
B9: 11041gL6 C91S gH11 D54E (Fab, V domains shown)
VH: B5 VH with I48V, S73N, V78L
VL: B5 VL with V3Q
notes: V-regions only; also called 11041gL11gH17

Kd (Human IL22 [3]): 0.657 nM
B10: 11041gL1gH1 D107E (Fab, V domains shown)
VH: B5 VH with E54D, D107E
VL: B5 VL with S91C
notes: V-regions only; also called 11041gL1gH4

Kd (Human IL22 [3]): 0.446 nM
B11: 11041gL7gH1 (Fab, V domains shown)
VH: B5 VH with E54D
VL: B5 VL with V2I, V3Q, S91C
notes: V-regions only

Kd (Human IL22 [3]): 0.0617 nM
B12: 11041gL7 C91S S96A gH11 D54E (Fab, V domains shown)
VH: B5 VH with I48V, S73N, V78L
VL: B5 VL with V2I, V3Q, S96A
notes: V-regions only; also called 11041gL14gH17

Kd (Human IL22 [3]): 0.0114 nM
B13: 11041gL1 C91S gH9 (Fab, V domains shown)
VH: B5 VH with V24A, E54D
VL: B5 VL
notes: V-regions only; also called 11041gL2gH9

Kd (Human IL22 [3]): 0.0398 nM
B14: 11041gL1 C91S S96AgH17 (Fab, V domains shown)
VH: B5 VH with I48V, S73N, V78L
VL: B5 VL with S96A
notes: V-regions only; also called 11041gL10gH17; gH17 = gH11 D54E

Kd (Human IL22 [3]): 0.0444 nM
B15: 11041gL6 C91S gH12 D54E (Fab, V domains shown)
VH: B5 VH with G49S, S73N, V78L
VL: B5 VL with V3Q
notes: V-regions only; also called 11041gL11gH18

Kd (Human IL22 [3]): 0.104 nM
B16: 11041gL7 C91S S96A gH8 D54E (Fab, V domains shown)
VH: B5 VH with V78L
VL: B5 VL with V2I, V3Q, S96A
notes: V-regions only; also called 11041gL14gH15

Kd (Human IL22 [3]): 0.166 nM
B17: 11041gL1gH1 D54E (Fab, V domains shown)
VH: B5 VH
VL: B5 VL with S91C
notes: V-regions only; also called 11041gL1gH3

Kd (Human IL22 [3]): 0.2 nM
B18: 11041gL1 S96A gH1 (Fab, V domains shown)
VH: B5 VH with E54D
VL: B5 VL with S91C, S96A
notes: V-regions only; also called 11041gL9gH1

Kd (Human IL22 [3]): 0.0517 nM
B19: 11041gL6 C91S S96A gH12 D54E (Fab, V domains shown)
VH: B5 VH with G49S, S73N, V78L
VL: B7 VL
notes: also called 11041gL13gH18

Kd (Human IL22 [3]): 0.0739 nM
B20: 11041gL7 C91S gH12 D54E (Fab, V domains shown)
VH: B5 VH with G49S, S73N, V78L
VL: B5 VL with V2I, V3Q
notes: V-regions only; also called 11041gL12gH18

Kd (Human IL22 [3]): 0.129 nM
B21: 11041gL1 N95D gH1 (Fab, V domains shown)
VH: B5 VH with E54D
VL: B5 VL with S91C, N95D
notes: V-regions only; also called 11041gL8gH1

Kd (Human IL22 [3]): 0.0454 nM
B22: 11041gL1 C91S S96AgH18 (Fab, V domains shown)
VH: B5 VH with G49S, S73N, V78L
VL: B5 VL with S96A
notes: V-regions only; also called 11041gL10gH18; gH18 = gH12 D54E

Kd (Human IL22 [3]): 0.0676 nM
B23: 11041gL7 C91S S96A gH12 D54E (Fab, V domains shown)
VH: B5 VH with G49S, S73N, V78L
VL: B5 VL with V2I, V3Q, S96A
notes: V-regions only; also called 11041gL14gH18

Kd (Human IL22 [3]): 0.627 nM
B24: 11041gL1gH1 G55A (Fab, V domains shown)
VH: B5 VH with E54D, G55A
VL: B5 VL with S91C
notes: V-regions only; also called 11041gL1gH2

Kd (Human IL22 [3]): 0.274 nM
B25: 11041gL1gH8 (Fab, V domains shown)
VH: B5 VH with E54D, V78L
VL: B5 VL with S91C
notes: V-regions only

Kd (Human IL22 [3]): 0.642 nM
B26: 11041gL1gH1 (Fab, V domains shown)
VH: B5 VH with E54D
VL: B5 VL with S91C
notes: Human Fab format (human kappa, human gamma-1 CH1); V-regions only

Kd (Human IL22 [3]): 0.378 nM
B27: 11041gL1gH5 (Fab, V domains shown)
VH: B5 VH with E54D, S73N
VL: B5 VL with S91C
notes: V-regions only

Kd (Human IL22 [3]): 0.0233 nM
B28: 11041gL1 C91S S96A gH5 D54E (Fab, V domains shown)
VH: B5 VH with S73N
VL: B5 VL with S96A
notes: heavy chain is the gH5 D54E (gH14) Fab heavy chain; also called 11041gL10gH14

Kd (Human IL22 [3]): 0.0888 nM
B29: 11041gL1 S96A gH1 D54E (Fab, V domains shown)
VH: B5 VH
VL: B5 VL with S91C, S96A
notes: V-regions only; also called 11041gL9gH3

Kd (Human IL22 [3]): 0.369 nM
B30: 11041gL6gH1 (Fab, V domains shown)
VH: B5 VH with E54D
VL: B5 VL with V3Q, S91C
notes: V-regions only

Kd (Human IL22 [3]): 0.0293 nM
B31: 11041gL7 C91S gH5 D54E (Fab, V domains shown)
VH: B5 VH with S73N
VL: B5 VL with V2I, V3Q
notes: also called 11041gL12gH14

Kd (Human IL22 [3]): 0.0266 nM
B32: 11041gL7 C91S S96A gH5 D54E (Fab, V domains shown)
VH: B5 VH with S73N
VL: B5 VL with V2I, V3Q, S96A
notes: also called 11041gL14gH14

Kd (Human IL22 [3]): 0.0524 nM
B33: 11041gL6 C91S S96A gH11 D54E (Fab, V domains shown)
VH: B5 VH with I48V, S73N, V78L
VL: B7 VL
notes: also called 11041gL13gH17

Kd (Human IL22 [3]): 0.115 nM
B34: 11041gL7 C91S gH8 D54E (Fab, V domains shown)
VH: B5 VH with V78L
VL: B5 VL with V2I, V3Q
notes: V-regions only; also called 11041gL12gH15

Kd (Human IL22 [3]): 0.079 nM
B35: 11041gL1 C91S S96AgH15 (Fab, V domains shown)
VH: B5 VH with V78L
VL: B5 VL with S96A
notes: V-regions only; also called 11041gL10gH15; gH15 = gH8 D54E

Kd (Human IL22 [3]): 0.106 nM
B36: 11041gL6 C91S gH8 D54E (Fab, V domains shown)
VH: B5 VH with V78L
VL: B5 VL with V3Q
notes: V-regions only; also called 11041gL11gH15
